From article PMC10245805 (bioRxiv, 2024)

Target: the molecule itself
Assay: cryo-EM structure

Protein	stoichiometry N
wild-type (WT) human asparagine synthetase (ASNS) (enzyme, UniProt P08243 1-561, looked up) MCGIWALFGSDDCLSVQCLSAMKIAHRGPDAFRFENVNGYTNCCFGFHRLAVVDPLFGMQPIRVKKYPYLWLCYNGEIYNHKKMQQHFEFEYQTKVDGEIILHLYDKGGIEQTICMLDGVFAFVLLDTANKKVFLGRDTYGVRPLFKAMTEDGFLAVCSEAKGLVTLKHSATPFLKVEPFLPGHYEVLDLKPNGKVASVEMVKYHHCRDVPLHALYDNVEKLFPGFEIETVKNNLRILFNNAVKKRLMTDRRIGCLLSGGLDSSLVAATLLKQLKEAQVQYPLQTFAIGMEDSPDLLAARKVADHIGSEHYEVLFNSEEGIQALDEVIFSLETYDITTVRASVGMYLISKYIRKNTDSVVIFSGEGSDELTQGYIYFHKAPSPEKAEEESERLLRELYLFDVLRADRTTAAHGLELRVPFLDHRFSSYYLSLPPEMRIPKNGIEKHLLRETFEDSNLIPKEILWRPKEAFSDGITSVKNSWFKILQEYVEHQVDDAMMANAAQKFPFNTPKTKEGYYYRQVFERHYPGRADWLSHYWMPKWINATDPSARTLTHYKSAVKA	2
R142I variant of human asparagine synthetase (ASNS) (enzyme, UniProt P08243 1-561, looked up) MCGIWALFGSDDCLSVQCLSAMKIAHRGPDAFRFENVNGYTNCCFGFHRLAVVDPLFGMQPIRVKKYPYLWLCYNGEIYNHKKMQQHFEFEYQTKVDGEIILHLYDKGGIEQTICMLDGVFAFVLLDTANKKVFLGRDTYGVIPLFKAMTEDGFLAVCSEAKGLVTLKHSATPFLKVEPFLPGHYEVLDLKPNGKVASVEMVKYHHCRDVPLHALYDNVEKLFPGFEIETVKNNLRILFNNAVKKRLMTDRRIGCLLSGGLDSSLVAATLLKQLKEAQVQYPLQTFAIGMEDSPDLLAARKVADHIGSEHYEVLFNSEEGIQALDEVIFSLETYDITTVRASVGMYLISKYIRKNTDSVVIFSGEGSDELTQGYIYFHKAPSPEKAEEESERLLRELYLFDVLRADRTTAAHGLELRVPFLDHRFSSYYLSLPPEMRIPKNGIEKHLLRETFEDSNLIPKEILWRPKEAFSDGITSVKNSWFKILQEYVEHQVDDAMMANAAQKFPFNTPKTKEGYYYRQVFERHYPGRADWLSHYWMPKWINATDPSARTLTHYKSAVKA	2
